According to publication PMC5487423 (2017):
Substitutions are numbered along the chain they refer to. Where two headings read alike, the source gives them in different places.

How the values were obtained:
Assay in all cases: BLI
CCL22_HUMAN = molecular target: T1, CCL22_HUMAN (Homo sapiens)
T1 chain: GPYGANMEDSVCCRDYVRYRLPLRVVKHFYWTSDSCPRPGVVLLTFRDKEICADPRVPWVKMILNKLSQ

CCL2 = CCL2 (human, UniProt P13500 24-99)
CCL7 = CCL7 (human, UniProt P80098 24-99)
CCL16_HUMAN = molecular target: T2, CCL16_HUMAN (Homo sapiens)
T2 chain: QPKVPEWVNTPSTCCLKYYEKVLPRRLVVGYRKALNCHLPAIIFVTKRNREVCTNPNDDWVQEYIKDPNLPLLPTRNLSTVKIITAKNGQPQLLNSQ

CCL17_HUMAN [1] = molecular target: T3, CCL17_HUMAN (Homo sapiens)
T3 chain: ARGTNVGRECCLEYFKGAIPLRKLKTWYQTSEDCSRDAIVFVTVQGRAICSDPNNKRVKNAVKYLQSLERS

CCL5 = molecular target: T4, CCL5 (human, UniProt P13501 24-91)
T4 chain: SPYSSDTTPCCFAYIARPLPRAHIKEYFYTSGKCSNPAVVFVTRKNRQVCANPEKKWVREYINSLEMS

CCL3 = molecular target: T5, CCL3 (human, UniProt P10147 24-92)
T5 chain: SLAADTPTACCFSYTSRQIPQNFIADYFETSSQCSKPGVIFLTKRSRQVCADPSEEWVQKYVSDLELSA

CCL4_HUMAN = molecular target: T6, CCL4_HUMAN (Homo sapiens)
T6 chain: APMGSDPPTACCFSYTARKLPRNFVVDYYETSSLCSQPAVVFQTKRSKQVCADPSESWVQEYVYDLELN

CCL13_HUMAN = CCL13_HUMAN (Homo sapiens)
CCL18_HUMAN = molecular target: T7, CCL18_HUMAN (Homo sapiens)
T7 chain: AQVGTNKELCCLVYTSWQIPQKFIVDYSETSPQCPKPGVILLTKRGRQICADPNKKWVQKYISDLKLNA

CCL14_HUMAN = molecular target: T8, CCL14_HUMAN (Homo sapiens)
T8 chain: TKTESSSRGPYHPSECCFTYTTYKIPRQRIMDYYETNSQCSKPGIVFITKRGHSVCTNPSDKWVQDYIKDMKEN

CCL8 = molecular target: T9, CCL8 (human, UniProt P80075 24-99)
T9 chain: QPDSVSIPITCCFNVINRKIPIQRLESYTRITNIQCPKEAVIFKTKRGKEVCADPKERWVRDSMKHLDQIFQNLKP

CCL3L1_HUMAN = molecular target: T10, CCL3L1_HUMAN (Homo sapiens)
T10 chain: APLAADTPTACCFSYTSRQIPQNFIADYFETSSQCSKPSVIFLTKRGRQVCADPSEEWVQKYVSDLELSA

CCL24_HUMAN = molecular target: T11, CCL24_HUMAN (Homo sapiens)
T11 chain: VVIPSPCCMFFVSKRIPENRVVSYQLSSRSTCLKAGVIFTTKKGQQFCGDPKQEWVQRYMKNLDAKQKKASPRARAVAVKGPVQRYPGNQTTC

CCL19_HUMAN = molecular target: T12, CCL19_HUMAN (Homo sapiens)
T12 chain: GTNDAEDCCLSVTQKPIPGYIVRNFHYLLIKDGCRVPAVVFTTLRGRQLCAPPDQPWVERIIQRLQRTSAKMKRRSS

CCL4L1_HUMAN = molecular target: T13, CCL4L1_HUMAN (Homo sapiens)
T13 chain: T6 chain with S47G

CCL11 = CCL11 (human, UniProt P51671 24-97)
CCL6_MOUSE = molecular target: CCL6_MOUSE
CCL27_HUMAN = molecular target: CCL27_HUMAN
CCL8_MOUSE = molecular target: CCL8_MOUSE
CCL19_MOUSE = molecular target: CCL19_MOUSE
CCL24_MOUSE = molecular target: CCL24_MOUSE
CCL27_MOUSE = molecular target: CCL27_MOUSE
CCL15_HUMAN = molecular target: CCL15_HUMAN
CCL9_MOUSE = molecular target: CCL9_MOUSE
CCL12_MOUSE = molecular target: CCL12_MOUSE
CCL23_HUMAN = molecular target: CCL23_HUMAN
CCL17_HUMAN [2] = molecular target: T3, CCL17_HUMAN

CCL7, sequence (P80098 24-99): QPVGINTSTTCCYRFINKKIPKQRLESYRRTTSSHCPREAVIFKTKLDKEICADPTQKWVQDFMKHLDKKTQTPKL
CCL11, sequence (P51671 24-97): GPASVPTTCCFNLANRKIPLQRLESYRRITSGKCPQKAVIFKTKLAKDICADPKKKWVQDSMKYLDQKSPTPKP
CCL13_HUMAN (Homo sapiens), sequence (chain, as listed by the source): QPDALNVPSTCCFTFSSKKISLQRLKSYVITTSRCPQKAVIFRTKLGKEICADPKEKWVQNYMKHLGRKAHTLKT
CCL2, sequence (P13500 24-99): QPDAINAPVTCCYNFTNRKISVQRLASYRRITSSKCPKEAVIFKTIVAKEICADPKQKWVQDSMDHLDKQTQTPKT

B1: P991_AMBCA, purified, C-terminal StrepII-8xHis tag (natural protein)
chain: ETGENGEGTTQPDYDNSTDYYNYEDFKCTCPAPHLNNTNGTVMKPIGCYYTCNVTRCTAPDTYPCYNLTEHQAKNLTTSPTTLCAVGNCDHGICVPNGTKELCFKAPNLEE
- Kd (CCL22_HUMAN): 4 nM
- Kd (CCL2): 12 nM
- Kd (CCL7): 0.51 nM
- Kd (CCL16_HUMAN): 1.3 nM
- Kd (CCL17_HUMAN [1]): 7.7 nM
- Kd (CCL5): 1.5 nM
- Kd (CCL3): 1.1 nM
- Kd (CCL4_HUMAN): 5.8 nM
- Kd (CCL13_HUMAN): 0.42 nM
- Kd (CCL18_HUMAN): 0.21 nM
- Kd (CCL14_HUMAN): 0.43 nM
- Kd (CCL8): 8.8 nM
- Kd (CCL3L1_HUMAN): 1.4 nM
- Kd (CCL24_HUMAN): 6.5 nM
- Kd (CCL19_HUMAN): 14 nM
- Kd (CCL4L1_HUMAN): 0.83 nM
- Kd (CCL11): 3.4 nM
- Kd (CCL6_MOUSE): 1.52 nM
- Kd (CCL27_HUMAN): 38.9 nM
- Kd (CCL8_MOUSE): 4.83 nM
- Kd (CCL19_MOUSE): 4.81 nM
- Kd (CCL24_MOUSE): 3.16 nM
- Kd (CCL27_MOUSE): 58 nM
- Kd (CCL15_HUMAN): 159 nM
- Kd (CCL9_MOUSE): 13.3 nM
- Kd (CCL12_MOUSE): 7.47 nM
- Kd (CCL23_HUMAN): 5.58 nM
- Kd (CCL17_HUMAN [2]): 7.66 nM
